Data taken from PMC9352680, “A comprehensive thermodynamic model for RNA binding by the Saccharomyces cerevisiae Pumilio protein PUF4”.
Where a chain is given by its changes, count along the chain named. Names and notes keep the numbering of the source.

T1: PUF4 RNA-binding domain (Saccharomyces cerevisiae, UniProt P25339 537-888)
T1 sequence: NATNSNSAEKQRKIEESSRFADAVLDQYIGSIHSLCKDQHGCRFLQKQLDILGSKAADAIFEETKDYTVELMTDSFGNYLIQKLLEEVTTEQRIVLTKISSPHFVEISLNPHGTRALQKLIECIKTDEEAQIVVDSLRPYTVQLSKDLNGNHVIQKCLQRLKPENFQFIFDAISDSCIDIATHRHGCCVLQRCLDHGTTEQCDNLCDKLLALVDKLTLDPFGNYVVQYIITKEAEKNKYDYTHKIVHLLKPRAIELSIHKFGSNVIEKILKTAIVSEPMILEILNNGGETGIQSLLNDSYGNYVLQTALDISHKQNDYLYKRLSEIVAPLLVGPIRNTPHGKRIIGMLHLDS

B1: Id_ii_S2_P3E.3_K3.2_C3.2_H3.2_A3.1_F3.1_T3.2_[T9C] (ssRNA)
RNA: UUUGAUUAAUAUGAUAUCGUUCUUUCUCUUAUAUAUACAUUCUUUCUCGAUAUCAUAUUAAUCUUU
B2: Id_ii_S2_P3E.3_K3.2_C3.2_H3.2_A3.1_F3.1_T3.2_[T9A] (ssRNA)
RNA: B1 RNA with C38A
B3: Id_ii_S2_P3E.3_K3.2_C3.2_H3.2_A3.1_F3.1_T3.2_[T9A]_[A10C] (ssRNA)
RNA: B1 RNA with C38A, A39C
B4: Id_ii_S2_P3E.4_K3.3_C3.2_[C-2T]_[T-1C]_H3.3_A3.1_F3.1_T3.2_[T9C]_[A10C] (ssRNA)
RNA: B1 RNA with C28U, U29C, U30A, A31C, U32A, A33C, A39C
B5: Id_ii_S2_P3E.4_K3.3_C3.2_[C-2T]_[T-1C]_H3.3_A3.1_F3.1_T3.2_[T9C]_[A10T] (ssRNA)
RNA: B1 RNA with C28U, U29C, U30A, A31C, U32A, A33C, A39U
B6: Id_ii_S2_P3E.4_K3.3_C3.2_[C-2A]_H3.3_A3.1_F3.1_T3.2_[T9C] (ssRNA)
RNA: B1 RNA with C28A, U30A, A31C, U32A, A33C
B7: Id_ii_S2_P3E.3_K3.2_C3.2_H3.2_A3.1_F3.1_T3.2_[T9A]_[A10T] (ssRNA)
RNA: B1 RNA with C38A, A39U
B8: Id_ii_S2_P3E.4_K3.3_C3.2_[C-2T]_H3.3_A3.1_F3.1_T3.2_[A10G] (ssRNA)
RNA: B1 RNA with C28U, U30A, A31C, U32A, A33C, C38U, A39G
B9: Id_ii_S2_P3E.4_K3.3_C3.2_[C-2G]_H3.3_A3.1_F3.1_T3.2 (ssRNA)
RNA: B1 RNA with C28G, U30A, A31C, U32A, A33C, C38U
B10: Id_ii_S2_P3E.4_K3.3_C3.2_[C-2T]_[T-1A]_H3.3_A3.1_F3.1_T3.2_[T9C]_[A10T] (ssRNA)
RNA: B1 RNA with C28U, U29A, U30A, A31C, U32A, A33C, A39U
B11: Id_ii_S2_P3E.4_K3.3_C3.2_[C-2A]_[T-1A]_H3.3_A3.1_F3.1_T3.2_[A10C] (ssRNA)
RNA: B1 RNA with C28A, U29A, U30A, A31C, U32A, A33C, C38U, A39C
B12: Id_ii_S2_P3E.4_K3.3_C3.2_[C-2T]_H3.3_A3.1_F3.1_T3.2_[A10C] (ssRNA)
RNA: B1 RNA with C28U, U30A, A31C, U32A, A33C, C38U, A39C
B13: Id_ii_S2_P3E.4_K3.3_C3.2_[C-2G]_[T-1C]_H3.3_A3.1_F3.1_T3.2_[T9A] (ssRNA)
RNA: B1 RNA with C28G, U29C, U30A, A31C, U32A, A33C, C38A
B14: Id_ii_S2_P3E.3_K3.2_C3.2_H3.2_A3.1_F3.1_T3.2_[A10T] (ssRNA)
RNA: B1 RNA with C38U, A39U
B15: Id_ii_S2_P3E.4_K3.3_C3.2_[C-2G]_[T-1C]_H3.3_A3.1_F3.1_T3.2_[T9C] (ssRNA)
RNA: B1 RNA with C28G, U29C, U30A, A31C, U32A, A33C
B16: Id_ii_S2_P3E.4_K3.3_C3.2_[C-2T]_[T-1A]_H3.3_A3.1_F3.1_T3.2_[T9A] (ssRNA)
RNA: B1 RNA with C28U, U29A, U30A, A31C, U32A, A33C, C38A
B17: Id_ii_S2_P3E.4_K3.3_C3.2_[C-2A]_[T-1C]_H3.3_A3.1_F3.1_T3.2_[A10T] (ssRNA)
RNA: B1 RNA with C28A, U29C, U30A, A31C, U32A, A33C, C38U, A39U
B18: Id_ii_S2_P3E.4_K3.3_C3.2_[C-2T]_[T-1C]_H3.3_A3.1_F3.1_T3.2_[T9C] (ssRNA)
RNA: B1 RNA with C28U, U29C, U30A, A31C, U32A, A33C
B19: Id_ii_S2_P3E.4_K3.3_C3.2_[C-2G]_[T-1C]_H3.3_A3.1_F3.1_T3.2_[T9A]_[A10C] (ssRNA)
RNA: B1 RNA with C28G, U29C, U30A, A31C, U32A, A33C, C38A, A39C
B20: Id_ii_S2_P3E.4_K3.3_C3.2_[C-2A]_[T-1A]_H3.3_A3.1_F3.1_T3.2_[T9A]_[A10T] (ssRNA)
RNA: B1 RNA with C28A, U29A, U30A, A31C, U32A, A33C, C38A, A39U
B21: Id_ii_S2_P3E.3_K3.2_C3.2_H3.2_A3.1_F3.1_T3.2_[A10G] (ssRNA)
RNA: B1 RNA with C38U, A39G
B22: Id_ii_S2_P3E.4_K3.3_C3.2_[C-2G]_H3.3_A3.1_F3.1_T3.2_[T9A]_[A10T] (ssRNA)
RNA: B1 RNA with C28G, U30A, A31C, U32A, A33C, C38A, A39U
B23: Id_ii_S2_P3E.4_K3.3_C3.2_[C-2A]_[T-1A]_H3.3_A3.1_F3.1_T3.2_[T9A] (ssRNA)
RNA: B1 RNA with C28A, U29A, U30A, A31C, U32A, A33C, C38A
B24: Id_ii_S2_P3E.3_K3.2_C3.2_H3.2_A3.1_F3.1_T3.2 (ssRNA)
RNA: B1 RNA with C38U
B25: Id_ii_S2_P3E.4_K3.3_C3.2_[C-2A]_[T-1C]_H3.3_A3.1_F3.1_T3.2_[T9C]_[A10T] (ssRNA)
RNA: B1 RNA with C28A, U29C, U30A, A31C, U32A, A33C, A39U
B26: Id_ii_S2_P3E.4_K3.3_C3.2_[C-2G]_H3.3_A3.1_F3.1_T3.2_[T9C]_[A10C] (ssRNA)
RNA: B1 RNA with C28G, U30A, A31C, U32A, A33C, A39C
B27: Id_ii_S2_P3E.4_K3.3_C3.2_[C-2T]_[T-1C]_H3.3_A3.1_F3.1_T3.2_[A10C] (ssRNA)
RNA: B1 RNA with C28U, U29C, U30A, A31C, U32A, A33C, C38U, A39C
B28: Id_ii_S2_P3E.4_K3.3_C3.2_[C-2T]_[T-1A]_H3.3_A3.1_F3.1_T3.2_[T9A]_[A10T] (ssRNA)
RNA: B1 RNA with C28U, U29A, U30A, A31C, U32A, A33C, C38A, A39U
B29: Id_ii_S2_P3E.4_K3.3_C3.2_[C-2T]_H3.3_A3.1_F3.1_T3.2_[T9C]_[A10T] (ssRNA)
RNA: B1 RNA with C28U, U30A, A31C, U32A, A33C, A39U
B30: Id_ii_S2_P3E.4_K3.3_C3.2_[C-2T]_H3.3_A3.1_F3.1_T3.2_[T9G]_[A10C] (ssRNA)
RNA: B1 RNA with C28U, U30A, A31C, U32A, A33C, C38G, A39C
B31: Id_ii_S2_P3E.4_K3.3_C3.2_[C-2G]_H3.3_A3.1_F3.1_T3.2_[T9A]_[A10C] (ssRNA)
RNA: B1 RNA with C28G, U30A, A31C, U32A, A33C, C38A, A39C
B32: Id_ii_S2_P3E.4_K3.3_C3.2_[C-2G]_H3.3_A3.1_F3.1_T3.2_[T9C]_[A10T] (ssRNA)
RNA: B1 RNA with C28G, U30A, A31C, U32A, A33C, A39U
B33: Id_ii_S2_P3E.4_K3.3_C3.2_[C-2G]_H3.3_A3.1_F3.1_T3.2_[A10C] (ssRNA)
RNA: B1 RNA with C28G, U30A, A31C, U32A, A33C, C38U, A39C
B34: Id_ii_S2_P3E.4_K3.3_C3.2_[C-2A]_[T-1C]_H3.3_A3.1_F3.1_T3.2_[T9A] (ssRNA)
RNA: B1 RNA with C28A, U29C, U30A, A31C, U32A, A33C, C38A
B35: Id_ii_S2_P3E.4_K3.3_C3.2_[C-2A]_H3.3_A3.1_F3.1_T3.2_[T9C]_[A10G] (ssRNA)
RNA: B1 RNA with C28A, U30A, A31C, U32A, A33C, A39G
B36: Id_ii_S2_P3E.4_K3.3_C3.2_[C-2T]_[T-1C]_H3.3_A3.1_F3.1_T3.2_[T9A]_[A10G] (ssRNA)
RNA: B1 RNA with C28U, U29C, U30A, A31C, U32A, A33C, C38A, A39G
B37: Id_ii_S2_P3E.4_K3.3_C3.2_[C-2T]_[T-1C]_H3.3_A3.1_F3.1_T3.2_[A10T] (ssRNA)
RNA: B1 RNA with C28U, U29C, U30A, A31C, U32A, A33C, C38U, A39U
B38: Id_ii_S2_P3E.4_K3.3_C3.2_[C-2G]_[T-1C]_H3.3_A3.1_F3.1_T3.2_[T9C]_[A10G] (ssRNA)
RNA: B1 RNA with C28G, U29C, U30A, A31C, U32A, A33C, A39G
B39: Id_ii_S2_P3E.4_K3.3_C3.2_[C-2A]_[T-1A]_H3.3_A3.1_F3.1_T3.2_[T9C]_[A10G] (ssRNA)
RNA: B1 RNA with C28A, U29A, U30A, A31C, U32A, A33C, A39G
B40: Id_ii_S2_P3E.3_K3.2_C3.2_H3.2_A3.1_F3.1_T3.2_[A10C] (ssRNA)
RNA: B1 RNA with C38U, A39C
B41: Id_ii_S2_P3E.4_K3.3_C3.2_[C-2A]_H3.3_A3.1_F3.1_T3.2_[T9C]_[A10C] (ssRNA)
RNA: B1 RNA with C28A, U30A, A31C, U32A, A33C, A39C

biological target: T1, PUF4 RNA-binding domain; experiment: Mg; RNA-MaP; 20 mM Na-HEPES pH 7.4, 30 mM KOAc, 0.75 mM MgCl2, 0.1% Tween-20, 5% glycerol, 0.1 mg/mL BSA, 2 mM DTT; 25 C; 0.0125-409.6 nM protein; conditions: tags: N-His6-TEV cleaved; C-SNAP kept, Cy3B-labelled; label: tethered on chip by stalled RNA polymerase

Binder | Kd [nM]
UCUCUUUGCAUUAUAAUCUCUU (ssRNA) [Ib_S1_P5E.1_K5.1_C5.1_H5.1_[T3C]_A5.1_F5.1_[T9A]_T5.1] | 1400
UCUCUUUGUUUUAUGAUCUCUU (ssRNA) [Ib_S1_P5E.1_K5.1_C5.1_H5.1_[A4T]_A5.1_F5.1_[T9G]_T5.1] | 981
B1 | 108
B2 | 401
B3 | 112
B4 | 1970
B5 | 1260
B6 | 21.7
B7 | 121
B8 | > 2300
B9 | 0.551
B10 | 1860
B11 | 1770
B12 | 475
B13 | 38.5
B14 | 72.5
B15 | 78
B16 | > 2300
B17 | 868
B18 | 417
B19 | 31.9
B20 | > 2300
B21 | 83.8

Binder | Kd [nM]
B22 | 0.478
B23 | 2020
B24 | 54.4
B25 | 1810
B26 | 0.875
B27 | 1260
B28 | 2150
B29 | 670
B30 | 898
B31 | 0.742
B32 | 1.98
B33 | 0.486
B34 | 1070
B35 | 116
B36 | > 2300
B37 | 940
B38 | 817
B39 | > 2300
B40 | 83.2
B41 | 15.5
UCUCUUUGCAUUAUCAUCUCUU (ssRNA) [Ib_S1_P5E.1_K5.1_C5.1_H5.1_[T3C]_A5.1_F5.1_[T9C]_T5.1] | > 2300
UCUCUUUGUGUUAUGAUCUCUU (ssRNA) [Ib_S1_P5E.1_K5.1_C5.1_H5.1_[A4G]_A5.1_F5.1_[T9G]_T5.1] | 750
